# Values quoted from earlier work as cited in paper PMC5466068.
# Molecular target: Cys32 (UniProt position 32, FSATWCGPCKM)
# Assay: NMR
# Conditions: not stated (a free thiol at the catalytic Cys implies the reduced form)
substance,measurement,value
Thioredoxin-1 (Thrx-1) (Homo sapiens),pKa,~6.3
